Target: SARS-CoV-2 Omicron BA.4 Spike (on pseudovirions) (SARS-CoV-2 Omicron BA.4)
Assay: cell-based or functional assay

B1: COV30-14 (antibody, V domains shown)
VH: QVQLVQSGAEVKKPGASVKVSCQTSGYTFTSYYMHWVRQAPGQGLEWMGLITPSGDDTYYAQRFQGRVTMTRDTSTSPTYMELSSLTSEDTAVYYCAKMSRAGGFDVWGQGTLVTVSS
VL: EVVLTQSPGTLSLSPGERATLSCRASQSITGRYLAWYQQKPGQAPRLLMYGESSRVTGIPDRFSGGGSGTDFTLTISRLEPEDFAVYYCQHFASSPPTYTFGQGTKLEIR
notes: also called the antibody according to the invention; the antibody according to invention
- Pseudovirion neutralization IC50 (geometric mean): 7.6 µg/mL

Reference: patent publication US20260234223A1 (LEYDEN LABORATORIES B V, published 2026)
